Publication PMC3320877 (2012)

Key:
[1] = target: T1, recombinant His-tagged insect-cell expressed CCR5, detergent-solubilised (UniProt P51681 1-352); assay: SPR; two binding site model, KD1
[2] = target: T1, recombinant His-tagged insect-cell …; assay: SPR; 1:1 binding model
[3] = target: T1, recombinant His-tagged insect-cell …; assay: SPR; two binding site model, KD2 (second site)

T1 sequence (P51681 whole entry): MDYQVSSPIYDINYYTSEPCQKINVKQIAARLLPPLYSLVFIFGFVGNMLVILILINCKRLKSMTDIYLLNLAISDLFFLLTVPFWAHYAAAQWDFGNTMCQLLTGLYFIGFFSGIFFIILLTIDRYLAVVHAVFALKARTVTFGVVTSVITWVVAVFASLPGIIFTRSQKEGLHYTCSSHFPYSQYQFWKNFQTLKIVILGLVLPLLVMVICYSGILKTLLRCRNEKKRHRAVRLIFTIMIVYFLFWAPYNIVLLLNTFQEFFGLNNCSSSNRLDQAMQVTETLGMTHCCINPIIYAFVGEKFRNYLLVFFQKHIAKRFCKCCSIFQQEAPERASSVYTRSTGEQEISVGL

B1: visfatin (recombinant) (natural protein)
chain: MNPAAEAEFNILLATDSYKVTHYKQYPPNTSKVYSYFECREKKTENSKLRKVKYEETVFYGLQYILNKYLKGKVVTKEKIQEAKDVYKEHFQDDVFNEKGWNYILEKYDGHLPIEIKAVPEGFVIPRGNVLFTVENTDPECYWLTNWIETILVQSWYPITVATNSREQKKILAKYLLETSGNLDGLEYKLHDFGYRGVSSQETAGIGASAHLVNFKGTDTVAGLALIKKYYGTKDPVPGYSVPAAEHSTITAWGKDHEKDAFEHIVTQFSSVPVSVVSDSYDIYNACEKIWGEDLRHLIVSRSTQAPLIIRPDSGNPLDTVLKVLEILGKKFPVTENSKGYKLLPPYLRVIQGDGVDINTLQEIVEGMKQKMWSIENIAFGSGGGLLQKLTRDLLNCSFKCSYVVTNGLGINVFKDPVADPNKRSKKGRLSLHRTPAGNFVTLEEGKGDLEEYGQDLLHTVFKNGKVTKSYSFDEIRKNAQLNIELEAAHH
B1 showed a Kd [1] of 2 nM, a Kd [2] of 5000 nM and a Kd [3] of 600 nM.
